# Test results from publication PMC12756002 (2025).
# B1: Sis1-WT [yeast] / Ssa1-WT [yeast] (parent complex)
# chain 1: MVKETKLYDLLGVSPSANEQELKKGYRKAALKYHPDKPTGDTEKFKEISEAFEILNDPQKREIYDQYGLEAARSGGPSFGPGGPGGAGGAGGFPGGAGGFSGGHAFSNEDAFNIFSQFFGGSSPFGGADDSGFSFSSYPSGGGAGMGGMPGGMGGMHGGMGGMPGGFRSASSSPTYPEEETVQVNLPVSLEDLFVGKKKSFKIGRKGPHGASEKTQIDIQLKPGWKAGTKITYKNQGDYNPQTGRRKTLQFVIQEKSHPNFKRDGDDLIYTLPLSFKESLLGFSKTIQTIDGRTLPLSRVQPVQPSQTSTYPGQGMPTPKNPSQRGNLIVKYKVDYPISLNDAQKRAIDENF
# chain 2: not shown
# B2: Sis1-WT [yeast] / full-length Rnq1 [yeast] (parent complex)
# chain 1: B1 chain 1
# chain 2: MDTDKLISEAESHFSQGNHAEAVAKLTSAAQSNPNDEQMSTIESLIQKIAGYVMDNRSGGSDASQDRAAGGGSSFMNTLMADSKGSSQTQLGKLALLATVMTHSSNKGSSNRGFDVGTVMSMLSGSGGGSQSMGASGLAALASQFFKSGNNSQGQGQGQGQGQGQGQGQGQGSFTALASLASSFMNSNNNNQQGQNQSSGGSSFGALASMASSFMHSNNNQNSNNSQQGYNQSYQNGNQNSQGYNNQQYQGGNGGYQQQQGQSGGAFSSLASMAQSYLGGGQTQSNQQQYNQQGQNNQQQYQQQGQNYQHQQQGQQQQQGHSSSFSALASMASSYLGNNSNSNSSYGGQQQANEYGRPQQNGQQQSNEYGRPQYGGNQNSNGQHESFNFSGNFSQQNNNGNQNRY
# B3: Ssa1-WT [yeast] / Sis1-FLRnq1 complex (Sis1-WT premixed with denatured Rnq1) [yeast] (parent complex)
# chain 1: not shown
# chain 2: B1 chain 1
# chain 3: B2 chain 2
# Variants of: B1
# Experiment: ELISA; Ssa1 (200 nM) immobilized; Sis1 at 20 nM; detection with αSis1 antibody; parent: 130; read off a plot
row,Variant,response [Abs 450nm]
1,chain 1 E53K,~97
2,chain 1 S49V,~82
3,chain 1 N56L,~75
4,chain 1 E53A,~78

# Variants of: B2
# Experiment: ELISA; 400 ng denatured FL Rnq1 immobilized; Sis1 at 20 nM; detection with Sis1-specific antibody; parent: 240; read off a plot
row,Variant,response [Abs 450nm]
1,chain 1 N56L,~60
2,chain 1 S49V,~130
3,chain 1 E53A,~79
4,chain 1 E53K,~140

# Variants of: B3
# Experiment: ELISA; Denatured Rnq1 premixed with Sis1 and immobilized; Ssa1-WT at 20 nM; detection with αSsa1 antibody; parent: 230; read off a plot
row,Variant,response [Abs 450nm]
1,chain 2 E53K,~110
2,chain 2 S49V,~170
3,chain 2 E53A,~120
4,chain 2 N56L,~89
